Test results taken from paper doi:10.1101/721233.

Target: human TrkA transmembrane domain peptide (TrkA-TM-wt) (human)
Assay: NMR structure

human TrkA transmembrane domain peptide (TrkA-TM-wt) (domain or fragment)
stoichiometry N: 2
